Data: publication PMC9641999, “Cryo-EM samples of gas-phase purified protein assemblies using native electrospray ion-beam deposition” (Faraday discussions, 2022)

B1: apoferritin (natural protein, UniProt P02791 1-175, looked up)
chain: MSSQIRQNYSTEVEAAVNRLVNLYLRASYTYLSLGFYFDRDDVALEGVCHFFRELAEEKREGAERLLKMQNQRGGRALFQDLQKPSQDEWGTTLDAMKAAIVLEKSLNQALLDLHALGSAQADPHLCDFLESHFLDEEVKLIKKMGDHLTNIQRLVGSQAGLGEYLFERLTLKHD
notes: ferritin, Sigma Aldrich F4503-25MG; The sample held both apo- and holoferritin, and the 24-mer of apoferritin was selected by mass; PDB 7A6A, used for comparison of shapes, may be a recombinant ferritin of another species or chain; also called apo/holo-ferritin; source: bought: Sigma Aldrich (F4503-25MG), saline stock solution, used without further purification; desalted into 200 mM ammonium …
B2: alcohol dehydrogenase (enzyme)
chain: MSIPETQKGVIFYESHGKLEYKDIPVPKPKANELLINVKYSGVCHTDLHAWHGDWPLPVKLPLVGGHEGAGVVVGMGENVKGWKIGDYAGIKWLNGSCMACEYCELGNESNCPHADLSGYTHDGSFQQYATADAVQAAHIPQGTDLAQVAPILCAGITVYKALKSANLMAGHWVAISGAAGGLGSLAVQYAKAMGYRVLGIDGGEGKEELFRSIGGEVFIDFTKEKDIVGAVLKATDGGAHGVINVSVSEAAIEASTRYVRANGTTVLVGMPAGAKCCSDVFNQVVKSISIVGSYVGNRADTREALDFFARGLVKSPIKVVGLSTLPEIYEKMEKGQIVGRYVVDTSK
notes: alcohol dehydrogenase (ADH), Sigma Aldrich A7011-15KU; native tetramer selected by mass; also called ADH; source: bought: Sigma Aldrich (A7011-15KU), used without further purification; desalted into 200 mM ammonium acetate

Target: the molecule itself
Assay: native MS; non-activating native electrospray on a Q Exactive UHMR; 200 mM ammonium acetate pH 6.9; 5 μM ADH, 10 μM β-gal, 8 μM ferritin, 5 μM GroEL (concentrations of the most abundant oligomers)

Protein | stoichiometry N
B1 | 24
B2 | 4
